No end group written: not given here.
What was measured:
PTH1 receptor [1] = molecular target: T1, PTH1 receptor (human, UniProt Q03431); assay: competition, [125I]rPTH(1-34), 10 uM GTPgS, HEK293 membranes
T1 chain: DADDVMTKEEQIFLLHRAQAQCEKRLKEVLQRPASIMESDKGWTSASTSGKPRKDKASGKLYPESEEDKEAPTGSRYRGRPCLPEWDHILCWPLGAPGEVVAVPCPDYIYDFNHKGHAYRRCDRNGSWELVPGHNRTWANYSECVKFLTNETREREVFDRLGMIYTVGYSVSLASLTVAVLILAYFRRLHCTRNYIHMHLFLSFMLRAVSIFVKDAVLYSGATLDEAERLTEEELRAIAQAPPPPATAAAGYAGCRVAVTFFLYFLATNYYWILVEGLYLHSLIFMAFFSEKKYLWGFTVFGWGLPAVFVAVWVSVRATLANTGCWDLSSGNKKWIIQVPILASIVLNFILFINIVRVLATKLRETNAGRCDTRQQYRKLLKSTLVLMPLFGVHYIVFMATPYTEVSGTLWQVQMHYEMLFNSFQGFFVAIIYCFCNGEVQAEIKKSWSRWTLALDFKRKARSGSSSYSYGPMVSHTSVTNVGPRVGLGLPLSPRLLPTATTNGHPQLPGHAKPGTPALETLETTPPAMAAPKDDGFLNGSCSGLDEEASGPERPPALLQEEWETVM

PTH2 receptor = molecular target: T2, PTH2 receptor (human); assay: competition, [125I]TIP39, 10 uM GTPgS, HEK293 membranes
T2 chain: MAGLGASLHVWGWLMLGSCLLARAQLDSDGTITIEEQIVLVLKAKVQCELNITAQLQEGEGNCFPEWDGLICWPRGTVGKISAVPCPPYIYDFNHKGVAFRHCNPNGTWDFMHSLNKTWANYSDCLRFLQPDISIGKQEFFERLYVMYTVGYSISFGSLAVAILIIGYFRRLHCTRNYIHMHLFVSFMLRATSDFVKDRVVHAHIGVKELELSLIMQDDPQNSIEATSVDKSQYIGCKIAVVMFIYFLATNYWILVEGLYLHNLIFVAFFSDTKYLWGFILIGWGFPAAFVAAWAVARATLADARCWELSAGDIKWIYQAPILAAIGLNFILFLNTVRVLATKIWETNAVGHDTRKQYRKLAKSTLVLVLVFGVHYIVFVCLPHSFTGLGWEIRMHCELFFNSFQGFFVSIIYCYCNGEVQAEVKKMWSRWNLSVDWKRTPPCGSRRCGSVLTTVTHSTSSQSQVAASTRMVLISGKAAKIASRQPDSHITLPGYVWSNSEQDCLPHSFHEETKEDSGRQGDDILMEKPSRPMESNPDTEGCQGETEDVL

PTH1 receptor [2] = molecular target: T1, PTH1 receptor; assay: other, radioligand kinetics, HEK293 membranes, 21C
PTH1 receptor [3] = molecular target: T1, PTH1 receptor; assay: other, radioligand saturation, HEK293 membranes, 21C
glucagon receptor = glucagon receptor (human, UniProt P47871); assay: competition, COS-7 cells, up to 1 uM
glucagon receptor, sequence (P47871 26-477): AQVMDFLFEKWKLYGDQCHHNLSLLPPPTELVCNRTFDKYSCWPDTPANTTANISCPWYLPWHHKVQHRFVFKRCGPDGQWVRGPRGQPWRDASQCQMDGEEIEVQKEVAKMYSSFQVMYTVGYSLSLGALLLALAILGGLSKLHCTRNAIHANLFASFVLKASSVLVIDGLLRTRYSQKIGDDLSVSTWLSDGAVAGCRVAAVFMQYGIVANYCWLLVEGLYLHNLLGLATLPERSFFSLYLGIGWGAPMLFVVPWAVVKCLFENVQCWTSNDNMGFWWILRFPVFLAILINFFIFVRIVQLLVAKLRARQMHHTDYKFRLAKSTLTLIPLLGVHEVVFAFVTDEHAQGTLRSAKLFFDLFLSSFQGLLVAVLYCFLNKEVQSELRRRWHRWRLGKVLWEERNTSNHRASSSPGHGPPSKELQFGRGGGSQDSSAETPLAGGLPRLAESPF

DAAFRERARLLAALERRHWLNSYMHKLLVLDAP [TIP(7-39)]
IC50 (PTH1 receptor [1]): 5 nM | IC50 (PTH2 receptor): 98 nM

DAAFRERARLLAALERRHWLNSYMHKLLVLDAP (also: 125I label, site not given here) [[125I]TIP(7-39)]
Kd (PTH1 receptor [2]): 0.57 nM | Kd (PTH1 receptor [3]): 1.3 nM

SLALADDAAFRERARLLAALERRHWLNSYMHKLLVLDAP [TIP39]
binding result (glucagon receptor): no binding

Source: US7122624 (dated 2006)
